From patent US20190231706A1, “SURFACTANT PEPTIDE NANOSTRUCTURES AND USES IN DRUG DELIVERY” (3-D Matrix, Ltd., priority 2017, published 2019)
Where two headings read alike, the source gives them in different places. Where a SMILES comes first, the peptide text is derived from it.

What was measured:
[1] = system: mouse tumor model; assay: Delivery of siRNA to tumor cells in vivo; conditions: siRNA/peptide complex administered to mouse tumor model
Experimental: The present Example describes, among other things, an exemplary use of surfactant peptides for delivery of siRNA to tumor cells in vivo. siRNA is complexed with Ac-A4K-NH2 (SEQ ID NO: 55), Ac-A3KA3-NH2 (SEQ ID NO:55), Ac-A6K-NH2 (SEQ ID NO: 105), or a control peptide. The siRNA and peptide complexes arrange into nanospherical structures. A composition comprising the nanospherical structures is administered to a mouse tumor model. One or more cancer associated genes is suppressed and the size of the tumor decreases.

[2] = AFM imaging of peptide and peptide/siRNA nanostructure; type: physicochemical; conditions: for Nanostructure of peptide / Diameter of the nanospheres: peptide alone
Description: Nanostructure plays an important role in formulation of agents (e.g., therapeutics, such as siRNA).

[3] = system: MCF-7 cell; assay: Cell toxicity, luciferase emission with peptides only or peptides/negative control siRNA; type: cell-based
Description: siRNA (Luciferase GL3 duplex) was complexed with Ac-A4K-NH2 (SEQ ID NO: 55), Ac-A3KA3-NH2 (SEQ ID NO:55), Ac-A6K-NH2 (SEQ ID NO: 105), and a control agent (DharmaFECT 1; commercially available lipid transfection agent). The siRNA and peptide complexes arranged into nanospherical structures. A composition comprising the nanospherical structures was provided to tumor cells (MCF-7 cell; breast cancer cell line) in vitro to preliminary transfection efficacy and cell toxicity. Two methods were utilized for the present Example. For Method 1, MCF-7 cells were cultured on a plate. The siRNA and peptide complexes were added into the culture medium over the cells. The culture dish (96 wells) containing the siRNA and peptide complexes and the cells was incubated for 48 hours. For Method 2, a concentrated suspension of MCF-7 cells (5×10^6 cells/ml) was prepared in a tube. The siRNA and peptide complexes were applied into the suspension. The cell mixture was incubated for 1 hour in the tube. The cell mixture was plated in the culture dish and incubated for 48 hours. Luciferase emission from each sample was observed. Table 4 summarizes experimental conditions e.g., concentration of siRNA and peptide surfactants, charge ratio, and types of siRNA (e.g., Luciferase GL3 duplex or negative control thereof). The buffer used in this Example was Opti-MEM1 (serum-free). As control samples, buffer only, negative control (NC) siRNA with or without the peptide surfactants, DharmaFECT 1 with or without siRNA (or NC siRNA) were tested with the cells. Cell toxicity.

[4] = literature reports; cited from earlier work
[5] = Transmittance study of surfactant peptides and peptide/siRNA complexes in aqueous solution; type: physicochemical; conditions: for Appearance of peptide mixed with siRNA in transmittance study: peptide 0.1% and 0.5% (w/v) with siRNA 0.01% and 0.05% (w/v), pH 7.5; for Transmittance (%) With siRNA (peptide %/siRNA %) 0.1%/0.01%: peptide 0.1%/siRNA 0.01%; for Transmittance (%) With siRNA (peptide %/siRNA %) 0.1%/0.01% / Transmittance (%) With siRNA (peptide %/siRNA %) 0.5%/0.05% / Transmittance (%) Peptide alone 0.1% (w/v) / Transmittance (%) Peptide alone 0.5% (w/v): aqueous solution pH 7.5; for Transmittance (%) With siRNA (peptide %/siRNA %) 0.1%/0.01% / Transmittance (%) With siRNA (peptide %/siRNA %) 0.5%/0.05%: * = significantly cloudy and phase-separated; for Transmittance (%) With siRNA (peptide %/siRNA %) 0.5%/0.05%: peptide 0.5%/siRNA 0.05%
[6] = Zeta potential by Zetasizer Nano ZS; type: physicochemical; conditions: 0.5 w/v % in an aqueous solution; in mV (unit assumed)
Experimental: Zeta potentials were measured by Zetasizer Nano ZS (Malvern) to characterize electrokinetic potential of the complex. Ac-A4K-NH2 (SEQ ID NO:55) concentration was 0.5 w/v % in an aqueous solution. siRNA (ribophorin II, RPN2) concentration was controlled for their various charge ratios of A4K/siRNA. The zeta potential of Ac-A4K-NH2 (SEQ ID NO:55) alone was +21.9, which represents that the surface of A4K nanosphere was positively charged because of the primary amine of lysine in Ac-A4K-NH2 (SEQ ID NO:55). As the equipment only detects dispersed phases larger than about 3.8 nm and the size of siRNA in water is about 2 nm in diameter, the measurement only reads the electrokinetic potential of Ac-A4K-NH2 (SEQ ID NO:55) or Ac-A4K-NH2 (SEQ ID NO:55)/siRNA complexes, not unassociated siRNA.

[7] = MCF-7, peptide only or with NC siRNA, 48 hours, Methods 1 and 2

Thickness of each layer of double layer structure ([2]; 0.1% (w/v)) [nm] | Diameter of the nanospheres [2] [nm] | Zeta potential of peptide alone [6] | Compound | Cancer associated gene expression [1] | Size of the tumor [1] | Cell toxicity (decrease in luciferase emission) compared with DharmaFECT [3, 7] | Nanostructure / self-assembly (previously reported) [4] | Appearance of peptide mixed with siRNA in transmittance study [5] | Transmittance (%) With siRNA (peptide %/siRNA %) 0.1%/0.01% [5] | Transmittance (%) With siRNA (peptide %/siRNA %) 0.5%/0.05% [5] | Transmittance (%) Peptide alone 0.1% (w/v) [5] [%] | Transmittance (%) Peptide alone 0.5% (w/v) [5] [%] | Nanostructure of peptide [2] | Cell toxicity (decrease in luciferase emission) compared with DharmaFECT [3]
0.8 |  |  | CC(=O)N[C@@H](C)C(=O)N[C@@H](C)C(=O)N[C@@H](C)C(=O)N[C@@H](C)C(=O)N[C@@H](C)C(=O)N[C@@H](C)C(=O)N[C@@H](CCCCN)C(N)=O [Ac-A6K-NH2, reference compound] (Ac-AAAAAAK-NH2) | suppressed | decreases | less toxic than DharmaFECT |  |  |  |  |  |  |  | 
 |  |  | AAAAAAK [A6K, exemplary conventional self-assembling peptide for comparison, reference compound] |  |  |  | nanotubes | cloudy and phase separated | 38.4* % | 15.3* % | 94.8 | 98.7 |  | 
 |  |  | AAAAAK [A5K, exemplary conventional self-assembling peptide for comparison, reference compound] |  |  |  |  | cloudy and phase separated | 95.5% | 22.7* % | 99.2 | 71.9 |  | 
 |  |  | A6K2A6: exemplary conventional self-assembling peptide for comparison (AAAAAAKKAAAAAA) [reference compound] |  |  |  |  |  | 62.9* % | 12.7* % | 98.5 | 83.1 |  | 
 |  |  | AAAK [A3K] |  |  |  |  | transparent and substantially without phase separation | 81.1% | 77.3% | 96.2 | 99.6 | nanospheric structures | 
 | 30 |  | CC(=O)N[C@@H](C)C(=O)N[C@@H](C)C(=O)N[C@@H](C)C(=O)N[C@@H](CCCCN)C(=O)N[C@@H](C)C(=O)N[C@@H](C)C(=O)N[C@@H](C)C(N)=O [Ac-A3KA3-NH2, Ac-AAAKAAA-NH2] (Ac-AAAKAAA-NH2) | suppressed | decreases |  |  |  |  |  |  |  | nanospheres (i.e., spherical nanovesicles) | less toxic than DharmaFECT
 |  |  | AAAAK [A4K] |  |  |  | does not exhibit relevant self-assembly in water | transparent and substantially without phase separation | 98.7% | 97.5% | 99.4 | 97.8 | nanospheric structures (spherical nanovesicles) | 
 | 85 | +21.9 | CC(=O)N[C@@H](C)C(=O)N[C@@H](C)C(=O)N[C@@H](C)C(=O)N[C@@H](C)C(=O)N[C@@H](CCCCN)C(N)=O [Ac-A4K-NH2, Ac-AAAAK-NH2] (Ac-AAAAK-NH2) | suppressed | decreases | less toxic than DharmaFECT |  |  |  |  |  |  | nanospheres (i.e., spherical nanovesicles) | 
 |  |  | AAAKAAA [A3KA3] |  |  |  |  | transparent and substantially without phase separation | 98.7% | 88.2% | 99.2 | 97.5 | nanospheric structures (spherical nanovesicles) | 

Compound | Thickness of each layer of double layer structure ([2]; 0.1% (w/v)) [nm] | Diameter of the nanospheres [2] [nm] | Zeta potential of peptide alone [6] | Cancer associated gene expression [1] | Size of the tumor [1] | Cell toxicity (decrease in luciferase emission) compared with DharmaFECT [3, 7] | Nanostructure / self-assembly (previously reported) [4] | Appearance of peptide mixed with siRNA in transmittance study [5] | Transmittance (%) With siRNA (peptide %/siRNA %) 0.1%/0.01% [5] | Transmittance (%) With siRNA (peptide %/siRNA %) 0.5%/0.05% [5] | Transmittance (%) Peptide alone 0.1% (w/v) [5] [%] | Transmittance (%) Peptide alone 0.5% (w/v) [5] [%] | Nanostructure of peptide [2] | Cell toxicity (decrease in luciferase emission) compared with DharmaFECT [3]
Ac-AAAK-NH2 [Ac-A3K-NH2] |  | 28 |  |  |  |  |  |  |  |  |  |  | nanospheres | 
